± gives the standard deviation of the averaged measurements.

This series deals with ATP. Briefly: switch fluorescence ratio, 500 uM ATP over buffer (Cy3 cluster intensity, sum of 5 cycles each) (fold (ratio)); higher = stronger signal-on switching upon ATP binding; sequences stand for … in TCGTCGGCAGCGTCAGATGTGTATAAGAGACAGTTTTTTTTTTTTTTTTTTTTTTTTT…TC. The following applies: aptamer strand: ATP DNA aptamer (quencher-CACCTGGGGGAGTATTGCGGAGGAAGG + anchor), 100 nM annealed; ATP concentration: 500 uM. In a few lines:
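Clusters with intensities outside 100-1000 RFU were excluded. The remaining Cy3-labelled switching-strand clusters on a modified Illumina MiSeq flow-cell had been annealed to 100 nM quencher-labelled ATP aptamer and imaged in selection buffer, then after 15 min with 500 uM ATP at 22 °C, for five cycles separated by NaOH stripping and re-annealing. The fluorescence ratio, averaged per switch-domain sequence, is each cluster's summed target-cycle Cy3 intensity over its summed buffer-cycle Cy3 intensity.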
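Note: ATP exposure 15 min at 22 °C before imaging.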

Consider AATAGCATGT, for which the switch fluorescence ratio is 0.981 ± 0.012. Turning to AATAGCTAAA, the switch fluorescence ratio worked out at 0.999 ± 0.03. To AATAGGAAGG belongs 1.01 ± 0.046. As for AATAGGAATG, the switch fluorescence ratio was 0.996 ± 0.017. To AATAGGGCG belongs 1.038 ± 0.0084. The same measure for AATAGGGTTA: 1 ± 0.045.

In the case of AATAGGGTTC, the switch fluorescence ratio was determined as 0.982 ± 0.025. In the case of AATAGGTCAT, the switch fluorescence ratio turned out to be 1.02 ± 0.028. The same measure for AATAGGTGGG: 0.951 ± 0.016; for AATAGTACAA: 1.04 ± 0.0056; for AATAGTACTG: 1 ± 0.071. The same measure for AATAGTAGGG: 1.01 ± 0.017. The same measure for AATAGTCGGC: 1 ± 0.042. With AATAGTGGTT, the switch fluorescence ratio was 1.004 ± 0.0033.

As to AATAGTTCTG, the switch fluorescence ratio worked out at 0.951 ± 0.043.

Turning to AATATAACCT, the switch fluorescence ratio came to 1.94 ± 0.092. To AATATACTTT belongs 1.04 ± 0.051.

AATATAGGGT: the switch fluorescence ratio was 0.997 ± 0.028.

In the case of AATATATTGA, the switch fluorescence ratio was found to be 0.996 ± 0.02. To AATATATTGG belongs 1.028 ± 0.0042; to AATATCATAC, 1.05 ± 0.021; to AATATCCGTA, 1.01 ± 0.033. To AATATGATTG belongs 1.02 ± 0.019.

Take AATATGGAGG: the switch fluorescence ratio turned out to be 0.985 ± 0.033. The same measure for AATATGGGGG: 1.01 ± 0.025; for AATATGGGTG: 1.08 ± 0.01; for AATATGTATC: 1.003 ± 0.0029. For the sequence AATATGTCTG, the switch fluorescence ratio was determined as 0.937 ± 0.06. As to AATATGTGGT, the switch fluorescence ratio worked out at 0.972 ± 0.015. The same measure for AATATTGTT: 0.996 ± 0.01; for AATATTTAGG: 0.987 ± 0.035; for AATATTTCAT: 0.966 ± 0.025. The same measure for AATATTTCCA: 0.974 ± 0.023. To AATATTTCGG belongs 0.99 ± 0.0092.

Consider AATATTTGG, for which the switch fluorescence ratio is 1.008 ± 0.0091.

Turning to AATATTTTTT, the switch fluorescence ratio was determined as 1.01 ± 0.049.

Turning to AATCAAAAAG, the switch fluorescence ratio was determined as 0.959 ± 0.018. The same measure for AATCAGACGG: 1.02 ± 0.021; for AATCAGGCCT: 1.05 ± 0.043. Take AATCATAGTA: the switch fluorescence ratio amounted to 1.011 ± 0.0089.

As for AATCATGTGC, the switch fluorescence ratio amounted to 1 ± 0.04. To AATCCGAGGA belongs 1.05 ± 0.054. The same measure for AATCCTGTTT: 1.01 ± 0.067; for AATCCTTGAG: 1.02 ± 0.034; for AATCGAAAGA: 1.02 ± 0.039. The same measure for AATCGGAATT: 1.01 ± 0.03; for AATCGGATGG: 1.02 ± 0.037. For the sequence AATCGGCGCT, the switch fluorescence ratio stood at 1.01 ± 0.045.

For the sequence AATCGGGTTT, the switch fluorescence ratio was 0.953 ± 0.02.

Take AATCGGTTAG: the switch fluorescence ratio was determined as 1 ± 0.03.

Take AATCGGTTGT: the switch fluorescence ratio amounted to 0.9815 ± 0.005. As for AATCGTTAAG, the switch fluorescence ratio came out at 0.97 ± 0.015. Consider AATCGTTGAA, for which the switch fluorescence ratio was 1.01 ± 0.017.

In the case of AATCTAAGGT, the switch fluorescence ratio is 0.983 ± 0.064. To AATCTCATAG belongs 1.01 ± 0.012; to AATCTCCATT, 0.982 ± 0.025; to AATCTGCCCA, 1.04 ± 0.015. The same measure for AATCTGCCTG: 0.99 ± 0.011; for AATCTGGGAG: 0.996 ± 0.015. To AATCTGTTAT belongs 0.992 ± 0.033; to AATCTTGATT, 1.2 ± 0.24. With AATCTTGGGT, the switch fluorescence ratio was determined as 0.972 ± 0.012. The same measure for AATGAAAGCC: 1.26 ± 0.39; for AATGAACTAG: 1.01 ± 0.053; for AATGAAGTCC: 1.054 ± 0.0038.

Take AATGAAGTCG: the switch fluorescence ratio came to 0.997 ± 0.064. The same measure for AATGACGATG: 1.02 ± 0.029. The same measure for AATGAGGGGA: 1 ± 0.013; for AATGAGGTCG: 1.002 ± 0.0046. To AATGATATGA belongs 1.02 ± 0.05. On to AATGATCCAG, for which the switch fluorescence ratio was 0.983 ± 0.032. The same measure for AATGATGTGG: 0.998 ± 0.021; for AATGATTGGG: 0.977 ± 0.02; for AATGATTGTT: 0.992 ± 0.03.

Turning to AATGCGAGAA, the switch fluorescence ratio was 0.973 ± 0.024. To AATGCTGGGG belongs 1.05 ± 0.081. To AATGGAACGG belongs 1.02 ± 0.032. To AATGGAGGAG belongs 1.01 ± 0.023. As to AATGGATAAC, the switch fluorescence ratio was 0.9862 ± 0.0045.

The values are drawn from the supplement of paper PMC10126150.
